A short description of the series: yeast display, Sf9 membrane polyspecificity reagent, FACS + sequencing; frameworks hold sequencing errors. The method, boiled down:
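In a synthetic yeast display library (Saccharomyces cerevisiae BJ5465), nanobody expression was induced with galactose for 36–48 hours. FACS gates were set low and high (top ~1%) using anti-HA fluorescence for expression and streptavidin fluorescence for binding of the Sf9 membrane reagent. Each polyreactivity label is drawn from the gate of origin.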
In the case of “QVQLVESGGGLVQAGGSLRLSCAASGRILARYAMGWYRQAPGKERELVASISRRGGSTYYADSVKGRFTISRDNAKNTVYLQMNSLKPEDTAVYYCNARGPVSSGYDYWGQGTQVTVSS”, the “polyreactivity (PSR sort gate)” value is given as “high polyreactivity”.
Regarding “QFQLVESGGGLVQAGASLRLSCAASVSTFRPYAMGWYRQAPGKERELVAAISSGDSTYYADSVKGRFTISRDNGKNTVYLQMNSLIPDDTAVYYCAKRNYWHRGGGYWGLGTQVTVSS”, the “polyreactivity (PSR sort gate)” value is on record as “high polyreactivity”.
For “QVQLVESGGGLVQAGGSLRLSCAASGSTFITYGMGWYRQAPGKERELVARITLSGGSTYYADSVKGRFTISRDNAKNTVYLQINSLKPEDTAVYYCATDFGWQYYVLDGYYWGQGTQVTVSS”, the “polyreactivity (PSR sort gate)” value is given as “low polyreactivity”.
For the sequence “QVQLVESRGGLVQAGGSLRLICAASGRIFGRNAMGWYRQAPGKERELVAAISKRGGSTSYADSVKGRFTISRDNAKNTVYLQMNSLKPEDTAVYYCATSAPLVTSSGYGYWGQGTQVTVSS”, the “polyreactivity (PSR sort gate)” value is recorded as “high polyreactivity”.
Next, “QVQLVESGGGLDQAGGSLRLSCAASGRIFTVYGMGWYRQAPGKERELVAAISWSGGGTYYADSVKGRFTISRDNAKNTVYLQMNSLKPEDTAVYYCNADRQYTWSLVFFSSDYDYWGQGTQVTVSS”: “low polyreactivity”; “QVQLVESGGGLVQAGGSLRLSCAASGNTLDAYTLGWDRQAPGKERELVAAISRGGTRTYYADSLKGRFTISRDNAKNTVYLQMKSLKPEDTAVYSCAAKVGYTHEYGRYDYWGQGTQVTVSS”: “high polyreactivity”; “QVQLVESVGGLVQAGGRLRLSCAASGITFYSYTMGWYRQAPGKERELVAAISDNGGRTFYADSVKGRFTISRDNAKNTVYLQMNSLKPEDTAVYYCAASRRRAVDYWGQGTQVTVSS”: “low polyreactivity”.
The value for “QVQLVESGGGLVHAGGSLRLSCAASGRIFSYYTMGWYRQAPGKERELVAAITASDGDTYYADSVKGRFTISRDNAMNTVYLQMNSLKPEDTAVYYCAADFWYYHTRMDYWGKGTQVTVSS” was “low polyreactivity”.
Next, “QVQLVESGGGLVQAGGSLRLSCAASGIIFYYYTMGWYRQAPGKERELVAAISFSGSNTYYADSVKGRFTISRDNAKNTVYLQMNSLKPEDTAVYYCAARARKDSNRRTYGYWGQGTQVTVSS”: “high polyreactivity”; “QVQLVESGGGLVQAGGRLRLSCAASGSTFSRNTMGWYRQAPGKESELVAAISKSGGRTYYADSVKGRFTISRDNAKNTVYLQMNSLKPEDTAVYYCNGVKLLGTRGYGYLGQGTQVTVSS”: “high polyreactivity”; “QVQLVESGGGLVQAGGSLRLSCAASGIIFWRYAMGWYRQAPGKERELVAAISSSGSTYYADSVKGRFTISRDNAKNTVYLQMNSLKPEDTAVYYCAAYSYPAGEYDYWGQGTQVTVSS”: “low polyreactivity”.
As for “QVQLVESGGGLVQSGGSLRLSCAASGYIFRFNAMGWYRQAPGKEREMVAVITSGARTYYADSVKGRFTISRDNAKNTVYLQMNSLKPEDTAVYYCNAGARRYLYDYWGHGTQVTVSS”, the “polyreactivity (PSR sort gate)” value is reported as “low polyreactivity”.
Next, “QVHLVESGGGLVQAGGSLRLSCAASGNTFDINAMGWYRQAPGKERELVAAISFSGGDTYYADSVKGRFTISRDNAKNTVYLQMNILKPEHTAVYYCAAEVPDTDAYGYWGQGTQVTVSS”: “low polyreactivity”; “QVQLVESGGGIVQAGGSLRLSCAASGIIFLDYVMVWYRQAPGKERELVAAINSGGSTYYADSVKGRFTISRDNAKNTVYLQMNSLIPEDTAVYYCAADDYYKFDYWGQGTQVTLSS”: “low polyreactivity”.
With “QLQLVESGGGLVQAGGSLRLSCAASGSTFYAYAMGWNRPAPGKERELVAAISRGGNTYYADSVQGRFTISRDNAKNTVYLQMNSRKPEDTAVYYCAARYARGRSPLQYGYWGQGTQVTVSS”, the “polyreactivity (PSR sort gate)” value was “high polyreactivity”.
Consider “QVQLVESGGGLVQAGGSLRLSCAASGSTFDFYPMGWYRQAPGKERELVAAIRIGGNPNYADSVKGRLTISRDNAKNTVYLQLNSLKPEDTAVYYCARDDTYDTPLSPYDYWGQGTQVTVSS”, for which the “polyreactivity (PSR sort gate)” value is listed as “low polyreactivity”.
